Experiment [1] concerns the target T1, human TNFR2 (human, UniProt P20333 23-461).
T1 construct: expressed on the surface of CHO cells; also called HuTNFR2; TNFRSF1B
T1 sequence: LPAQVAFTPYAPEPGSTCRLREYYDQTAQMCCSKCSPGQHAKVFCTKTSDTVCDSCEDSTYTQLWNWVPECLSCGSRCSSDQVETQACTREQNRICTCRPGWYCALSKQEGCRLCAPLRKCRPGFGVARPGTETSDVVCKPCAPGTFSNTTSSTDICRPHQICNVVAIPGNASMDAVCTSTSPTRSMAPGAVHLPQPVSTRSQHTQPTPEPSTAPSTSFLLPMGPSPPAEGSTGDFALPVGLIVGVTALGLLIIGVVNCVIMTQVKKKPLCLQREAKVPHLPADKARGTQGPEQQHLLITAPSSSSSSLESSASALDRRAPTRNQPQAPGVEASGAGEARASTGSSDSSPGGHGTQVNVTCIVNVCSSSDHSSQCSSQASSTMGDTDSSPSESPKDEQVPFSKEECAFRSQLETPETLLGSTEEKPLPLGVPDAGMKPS
Put plainly: binding to human TNFR2 CHO cells, TetraFab format.

The target of experiment [2] is T2, human TNFR2 (human, UniProt P20333 23-461).
T2 sequence: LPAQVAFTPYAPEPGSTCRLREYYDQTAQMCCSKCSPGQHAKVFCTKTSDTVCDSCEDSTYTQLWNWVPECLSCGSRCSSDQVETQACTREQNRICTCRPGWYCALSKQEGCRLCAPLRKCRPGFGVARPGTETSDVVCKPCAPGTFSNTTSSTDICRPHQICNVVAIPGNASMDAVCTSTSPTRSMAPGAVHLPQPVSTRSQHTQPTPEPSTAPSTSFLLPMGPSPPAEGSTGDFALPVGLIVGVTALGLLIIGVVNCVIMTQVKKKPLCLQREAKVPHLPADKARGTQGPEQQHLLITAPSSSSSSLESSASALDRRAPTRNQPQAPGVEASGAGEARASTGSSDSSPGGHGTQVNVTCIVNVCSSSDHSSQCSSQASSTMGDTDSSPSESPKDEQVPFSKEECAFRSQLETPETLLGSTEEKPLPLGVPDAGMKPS
Description: cell-based or functional assay.

For experiment [3], the target named is T3, cynomolgus monkey TNFR2 (cynomolgus monkey, UniProt P20333 23-461 (human entry)).
T3 chain: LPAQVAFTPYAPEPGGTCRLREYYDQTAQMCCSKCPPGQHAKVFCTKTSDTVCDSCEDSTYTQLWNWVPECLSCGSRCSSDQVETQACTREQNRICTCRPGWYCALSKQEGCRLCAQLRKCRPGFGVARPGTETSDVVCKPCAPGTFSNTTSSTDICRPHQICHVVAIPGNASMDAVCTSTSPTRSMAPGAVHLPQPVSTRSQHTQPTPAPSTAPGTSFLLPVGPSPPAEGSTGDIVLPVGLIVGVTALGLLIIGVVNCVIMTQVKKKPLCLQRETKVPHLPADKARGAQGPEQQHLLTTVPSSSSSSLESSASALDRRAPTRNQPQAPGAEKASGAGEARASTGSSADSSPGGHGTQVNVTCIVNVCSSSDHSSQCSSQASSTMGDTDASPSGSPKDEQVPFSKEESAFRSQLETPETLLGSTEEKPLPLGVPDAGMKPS
Description: cell-based or functional assay.

A further experiment has as its target T4, biotinylated human TNFR2 (human, UniProt P20333 23-257, biotinylated).
T4 construct: Soluble biotinylated protein captured on a streptavidin chip for SPR; also called HuTNFR2
T4 sequence: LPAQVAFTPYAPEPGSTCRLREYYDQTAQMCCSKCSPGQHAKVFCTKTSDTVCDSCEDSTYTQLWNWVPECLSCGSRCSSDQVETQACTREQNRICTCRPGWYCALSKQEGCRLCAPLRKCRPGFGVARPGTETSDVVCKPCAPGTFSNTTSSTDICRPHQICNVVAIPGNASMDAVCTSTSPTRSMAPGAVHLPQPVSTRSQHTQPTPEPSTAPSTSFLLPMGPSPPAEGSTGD
Description: SPR (BIAcore), biotinylated TNFR2 captured on streptavidin chip, antibody as analyte (apparent affinity). The method, then: (§1) Increased avidity was confirmed by Surface Plasmon Resonance (SPR) using a BIAcore. Briefly, biotinylated human- or cyno-TNFR2 was captured on the surface of a streptavidin chip for 60 seconds at a flow rate of […]. […] The dissociation phase was then initiated with running buffer (HBS-EP+) injected for 600 seconds at […]. Data were analyzed using the Biacore Evaluation Software.

The target in the next experiment is T5, biotinylated cyno TNFR2 (cynomolgus monkey, UniProt P20333 23-257 (human entry), limits assumed, biotinylated).
T5 construct: Soluble biotinylated protein captured on a streptavidin chip for SPR; also called CyTNFR2
T5 chain: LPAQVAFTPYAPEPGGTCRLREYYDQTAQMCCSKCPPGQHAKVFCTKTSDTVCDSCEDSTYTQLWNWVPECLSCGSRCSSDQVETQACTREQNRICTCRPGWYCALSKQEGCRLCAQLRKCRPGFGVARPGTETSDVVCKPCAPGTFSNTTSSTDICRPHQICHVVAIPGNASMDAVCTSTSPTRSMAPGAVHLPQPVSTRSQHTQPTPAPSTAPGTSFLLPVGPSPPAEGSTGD
The experiment is described as above. The method, then: as §1

Experiment [4] addresses T2, human TNFR2. Put plainly: cell-based or functional assay. This is another data set of the same source.
The target of experiment [5] is T3, cynomolgus monkey TNFR2. Description: cell-based or functional assay.
For experiment [6], the target named is T2, human TNFR2. Put plainly: binding to human TNFR2 CHO cells.
For experiment [7], the target named is T2, human TNFR2. Put plainly: cell-based or functional assay. This is another data set of the same source.
Experiment [8] concerns the target T2, human TNFR2. Put plainly: binding to CHO cells over-expressing human TNFR2.

Results on five molecules are retold here after patent publication US20230406951A1 (Pfizer, published 2023).

B1: TetraFab 2209 (antibody, human IgG1, kappa)
heavy: QVQLVQSGAEVKKPGASVKVSCKVSGFSFPSSGVDWVRQAPGQGLEWLGVTWGVGSTHYNQKFQGRVTITKDTSKSTVYMELSSLRSEDTAVYYCASGEWDEGFVYWGQGTLVTVSSASTKGPSVFPLAPSSKSTSGGTAALGCLVKDYFPEPVTVSWNSGALTSGVHTFPAVLQSSGLYSLSSVVTVPSSSLGTQTYICNVNHKPSNTKVDKKVEPKSCGGGGSQVQLVQSGAEVKKPGASVKVSCKVSGFSFPSSGVDWVRQAPGQGLEWLGVTWGVGSTHYNQKFQGRVTITKDTSKSTVYMELSSLRSEDTAVYYCASGEWDEGFVYWGQGTLVTVSSASTKGPSVFPLAPSSKSTSGGTAALGCLVKDYFPEPVTVSWNSGALTSGVHTFPAVLQSSGLYSLSSVVTVPSSSLGTQTYICNVNHKPSNTKVDKKVEPKSCDKTHTCPPCPAPEAAGAPSVFLFPPKPKDTLMISRTPEVTCVVVDVSHEDPEVKFNWYVDGVEVHNAKTKPREEQYNSTYRVVSVLTVLHQDWLNGKEYKCKVSNKALPAPIEKTISKAKGQPREPQVYTLPPSREEMTKNQVSLTCLVKGFYPSDIAVEWESNGQPENNYKTTPPVLDSDGSFFLYSKLTVDKSRWQQGNVFSCSVMHEALHNHYTQKSLSLSPGK
light: DIQLTQSPSFLSASVGDRVTITCKASQNVGTAVAWYQQKPGKAPKLLIYAASTLQSGVPSRFSGSGSGTEFTLTISSLQPEDFATYYCLQYSSYPLTFGGGTKVEIKRTVAAPSVFIFPPSDEQLKSGVTASVVCLLNNFYPREAKVQWKVDNALQSGNSQESVTEQDSKDSTYSLSSTLTLSKADYEKHKVYACEVTHQGLSSPVTKSFNRGEC
notes: TetraFab; parental heavy chain
Molecule B1 yielded an EC50 in the experiment with human TNFR2 [1] of 0.15 nM.

B2: TetraFab 2208 (antibody, human IgG1, kappa)
heavy: QVQLVQSGAEVKKPGASVKVSCKVSGFSFPSSGVDWVRQAPGQGLEWLGVTWGVGSTHYNQKFQGRVTITKDTSKSTVYMELSSLRSEDTAVYYCASGEWDEGFVYWGQGTLVTVSSASTKGPSVFPLAPSSKSTSGGTAALGCLVKDYFPEPVTVSWNSGALTSGVHTFPAVLQSSGLYSLSSVVTVPSSSLGTQTYICNVNHKPSNTKVDKKVEPKSCGGGGSQVQLVQSGAEVKKPGASVKVSCKVSGFSFPSSGVDWVRQAPGQGLEWLGVTWGVGSTHYNQKFQGRVTITKDTSKSTVYMELSSLRSEDTAVYYCASGEWDEGFVYWGQGTLVTVSSASTKGPSVFPLAPSSKSTSGGTAALGCLVKDYFPEPVTVSWNSGALTSGVHTFPAVLQSSGLYSLSSVVTVPSSSLGTQTYICNVNHKPSNTKVDKKVEPKSCDKTHTCPPCPAPEAAGAPSVFLFPPKPKDTLMISRTPEVTCVVVDVSHEDPEVKFNWYVDGVEVHNAKTKPREEQYNSTYRVVSVLTVLHQDWLNGKEYKCKVSNKALPAPIEKTISKAKGQPREPQVYTLPPSREEMTKNQVSLTCLVKGFYPSDIAVEWESNGQPENNYKTTPPVLDSDGSFFLYSKLTVDKSRWQQGNVFSCSVMHEALHNHYTQKSLSLSPGK
light: DIQLTQSPSFLSASVGDRVTITCKASQNVGTAVAWYQQKPGKAPKLLIYAASTLQSGVPSRFSGSGSGTEFTLTISSLQPEDFATYYCLQKSSYPLTFGGGTKVEIKRTVAAPSVFIFPPSDEQLKSGVTASVVCLLNNFYPREAKVQWKVDNALQSGNSQESVTEQDSKDSTYSLSSTLTLSKADYEKHKVYACEVTHQGLSSPVTKSFNRGEC
notes: as for B1
For B2, in the experiment with human TNFR2 [1], the EC50 was 2.3 nM.

B3: TetraFab 2053 (antibody, human IgG1, kappa)
heavy: QVQLVQSGAEVKKPGASVKVSCKVSGFSFPSSGVDWVRQAPGQGLEWLGVTWGVGSTHYNQKFQGRVTITKDTSKSTVYMELSSLRSEDTAVYYCASGEWDEGFVYWGQGTLVTVSSASTKGPSVFPLAPSSKSTSGGTAALGCLVKDYFPEPVTVSWNSGALTSGVHTFPAVLQSSGLYSLSSVVTVPSSSLGTQTYICNVNHKPSNTKVDKKVEPKSCGGGGSQVQLVQSGAEVKKPGASVKVSCKVSGFSFPSSGVDWVRQAPGQGLEWLGVTWGVGSTHYNQKFQGRVTITKDTSKSTVYMELSSLRSEDTAVYYCASGEWDEGFVYWGQGTLVTVSSASTKGPSVFPLAPSSKSTSGGTAALGCLVKDYFPEPVTVSWNSGALTSGVHTFPAVLQSSGLYSLSSVVTVPSSSLGTQTYICNVNHKPSNTKVDKKVEPKSCDKTHTCPPCPAPEAAGAPSVFLFPPKPKDTLMISRTPEVTCVVVDVSHEDPEVKFNWYVDGVEVHNAKTKPREEQYNSTYRVVSVLTVLHQDWLNGKEYKCKVSNKALPAPIEKTISKAKGQPREPQVYTLPPSREEMTKNQVSLTCLVKGFYPSDIAVEWESNGQPENNYKTTPPVLDSDGSFFLYSKLTVDKSRWQQGNVFSCSVMHEALHNHYTQKSLSLSPGK
light: DIQLTQSPSFLSASVGDRVTITCKASQNVGTAVAWYQQKPGKAPKLLIYAASTLQSGVPSRFSGSGSGTEFTLTISSLQPEDFATYYCQQYSSYPLTFGGGTKVEIKRTVAAPSVFIFPPSDEQLKSGVTASVVCLLNNFYPREAKVQWKVDNALQSGNSQESVTEQDSKDSTYSLSSTLTLSKADYEKHKVYACEVTHQGLSSPVTKSFNRGEC
notes: dual Fab heavy chain (outer VH-CH1, G4S linker, inner VH-CH1, human IgG1 Fc) pairing with 4 light chains; also called TF2053
In the experiment with human TNFR2 [1], B3 gave an EC50 of 0.7 nM.

B4: GBT-TNFR2-1765 (antibody, human IgG2, kappa, V domains shown)
VH: QVQLVQSGAEVKKPGASVKVSCKVSGFSFPSSGVDWVRQAPGQGLEWLGVTWGVGSTHYNQKFQGRVTITKDTSKSTVYMELSSLRSEDTAVYYCASGEWDEGFVYWGQGTLVTVSS
VL: DIQLTQSPSFLSASVGDRVTITCKASQNVGTAVAWYQQKPGKAPKLLIYAASTLQSGVPSRFSGSGSGTEFTLTISSLQPEDFATYYCQQYSSYPLTFGGGTKVEIKR
Turning to B4, in the experiment with human TNFR2 [2], the “EC50 (HuPBMC)” value came to 1.31 nM and the “Jurkat EC50” value was 1.01 µg/mL. Besides, the “EC50 (CyPBMC)” value with cynomolgus monkey TNFR2 [3] turned out to be 13.6 nM. Further, in the experiment with biotinylated human TNFR2, the Kd worked out at 0.32 nM, the off-rate (koff) turned out to be 0.00136 s⁻¹ and the kon worked out at 4.2e+06 M⁻¹ s⁻¹. In addition, in the experiment with biotinylated cyno TNFR2, the Kd was determined as 2.39 nM, the koff came to 0.00977 s⁻¹ and the kon is 4.09e+06 M⁻¹ s⁻¹. For the same molecule, the “EC50 HuPBMC (ICAM-1 up-regulation)” value with human TNFR2 [4] is 1.31 µg/mL. For the same molecule, in the experiment with cynomolgus monkey TNFR2 [5], the “EC50 CyPBMC (CD25+/Ki67+ of CD4+ cells)” value amounted to 13.6 µg/mL. In addition, the EC50 with human TNFR2 [6] is 1.21 nM. Further, in the experiment with human TNFR2 [7], the “EC50 Jurkat” value is 1.01 µg/mL.

B5: clone 825 (antibody, V domains shown)
VH: QVQLKESGPGLVAPSQSLSITCTVSGFSFPSSGVDWVRQSPGKGLEWLGVTWGVGSTHYNSALKSRLSISKDNSKSQVFLKMNSLQTEDTAIYYCASGEWDEGFVYWGQGTLVTVSA
VL: DIVMTQSQKFMSTTVGDRVSITCKASQNVGTAVAWYQQKPGQSPKLLIYSASNRYTGVPDRFTGSGSGTDFTLTISNMQSEDLADYFCQQYSSYPLTFGGGTKLEIK
notes: human IgG1 (L234A, L235A, G237A, EU), kappa
Turning to B5, the response with human TNFR2 [8] was half-maximal at 0.0698 µg/mL (EC50).
